The record followed here is patent US20200392251A1.

Positions count from the first letter of the chain named.

The target of test [1] is human β-secretase 1 (BACE1), extracellular/catalytic domain (human) (UniProt P56817). Put plainly: enzyme inhibition assay with FRET peptide substrate (M-2420), Fab titrated on BACE1 [panel B1B3].
For test [2] the target is unchanged. Put plainly: FRET peptide inhibition assay; KI=IC50/(S/Km+1).
Test [3] has the same target. Put plainly: bio-layer interferometry (ForteBio), biotinylated protease on streptavidin biosensor, Fab in solution [panel B1B3]. A general note: BLI is a label-free optical method that tracks binding on a fibre tip over time.
Test [4] has the same target. Put plainly: biolayer interferometry; biotinylated protease on streptavidin sensor, Fab in solution.
Test [5] has as its target catalytic domain of MMP-9 (cdMMP-9) (UniProt P14780). Put plainly: bio-layer interferometry.
Test [6] has the same target. Put plainly: bio-layer interferometry; reference cdMMP-12 wt.
For test [7], the target named is human β-secretase 1 (BACE1), extracellular/catalytic domain (human) (UniProt P56817). Nature of the test: bio-layer interferometry (ForteBio), biotinylated protease on streptavidin biosensor, Fab in solution [panel B2B5].
Test [8] has the same target. Put plainly: enzyme inhibition assay with FRET peptide substrate (M-2420), Fab titrated on BACE1 [panel B2B5].
For test [9], the target named is catalytic domain of MMP-9 (cdMMP-9) (UniProt P14780). Nature of the test: FRET peptide inhibition assay; reference cdMMP-12 mutant D4.
Test [10] shares this target. Put plainly: FRET peptide inhibition assay.
Test [11] addresses human β-secretase 1 (BACE1), extracellular/catalytic domain (human) (UniProt P56817). Put plainly: enzyme inhibition assay with FRET peptide substrate (M-2420), Fab titrated on BACE1 [panel B1A4].
The target is the same in test [12]. Put plainly: bio-layer interferometry (ForteBio), biotinylated protease on streptavidin biosensor, Fab in solution [panel B1A4].
The target is the same in test [13]. Nature of the test: biolayer interferometry; IgG on protein A sensor, protease in solution.
Test [14] has the same target. Nature of the test: enzyme inhibition assay with FRET peptide substrate, IgG titrated on BACE1 [panel A].
Test [15] shares this target. Put plainly: enzyme inhibition assay with FRET peptide substrate (M-2420), Fab titrated on BACE1 [panel B2B2].
For test [16] the target is unchanged. Put plainly: bio-layer interferometry (ForteBio), biotinylated protease on streptavidin biosensor, Fab in solution [panel B2B2].
The target is the same in test [17]. Nature of the test: enzyme inhibition assay with FRET peptide substrate (M-2420), Fab titrated on BACE1 [panel B2B3].
Test [18] shares this target. Put plainly: bio-layer interferometry (ForteBio), biotinylated protease on streptavidin biosensor, Fab in solution [panel B2B3].

human β-secretase 1 (BACE1), extracellular/catalytic domain (human), sequence (P56817 46-457 limits assumed, form in doubt): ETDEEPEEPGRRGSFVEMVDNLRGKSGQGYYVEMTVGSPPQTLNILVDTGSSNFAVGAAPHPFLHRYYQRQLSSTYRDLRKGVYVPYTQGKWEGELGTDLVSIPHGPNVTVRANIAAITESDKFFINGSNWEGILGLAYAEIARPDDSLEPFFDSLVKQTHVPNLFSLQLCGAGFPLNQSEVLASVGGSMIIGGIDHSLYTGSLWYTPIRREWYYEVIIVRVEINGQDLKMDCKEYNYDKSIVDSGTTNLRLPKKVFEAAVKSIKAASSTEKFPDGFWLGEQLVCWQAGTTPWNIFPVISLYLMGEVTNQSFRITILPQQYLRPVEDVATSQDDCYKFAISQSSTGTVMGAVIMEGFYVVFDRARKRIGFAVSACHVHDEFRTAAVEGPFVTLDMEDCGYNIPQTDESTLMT

B1: anti-BACE1 Fab B1B3 (Fab, V domains shown)
VH: EVQLVESGGGLVQPGGSLRLSCAASGFNISYYSMHWVRQAPGKGLEWVASISPYYGSTYYADSVKGRFTISADTSKNTAYLQMNSLRAEDTAVYYCARERSSCPVGWRDSRFGADGYGLEYWGQGTLVTVSS
VL: DIQMTQSPSSLSASVGDRVTITCRASQSVSSAVAWYQQKPGKAPKLLIYSASSLYSGVPSRFSGSRSGTDFTLTISSLQPEDFATYYCQQSGHYHSLITFGQGTKVEIKR
As to B1, the IC50 (as a rule, the point on the concentration scale where inhibition reaches its midpoint) in test [1] worked out at 270 nM. For the same molecule, the inhibition constant (Ki) (commonly the equilibrium dissociation constant of an inhibitor or competing ligand from its target) in [2] amounted to 210 nM. Also, in test [3], the koff (commonly the first-order rate constant of dissociation) came to 0.013 s⁻¹ and the kon (in general, a measure of how fast the partners come together) came to 410000 M⁻¹ s⁻¹. Further, in [4], the Kd (in general, the free concentration of one partner at which half of the binding sites on the other are occupied at equilibrium, for simple one-to-one binding) stood at 31 nM.

B2: anti-MMP-12 Fab LG4 (Fab, V domains shown)
VH: EVQLVESGGGLVQPGGSLRLSCAASGFNLYYSYMHWVRQAPGKGLEWVASISSYYGYTSYADSVKGRFTISADTSKNTAYLQMNSLRAEDTAVYYCARSPIVYYELFMFIDMGAQGWKYGMDYWGQGTLVTVSS
VL: DIQMTQSPSSLSASVGDRVTITCRASQSVSSAVAWYQQKPGKAPKLLIYSASSLYSGVPSRFSGSRSGTDFTLTISSLQPEDFATYYCQQTFYPFTFGQGTKVEIKR
B2 gave a Kd in [5] of 720 nM. In test [6], the fold (KD compared with cdMMP-12 wt) was found to be 10 fold.

B3: anti-BACE1 Fab B2B5 (Fab, V domains shown)
VH: EVQLVESGGGLVQPGGSLRLSCAASGFNIYYSYMHWVRQAPGKGLEWVASIYPYYGSTYYADSVKGRFTISADTSKNTAYLQMNSLRAEDTAVYYCARWHGYPPGYSYYSSFSSSGFDYWGQGTLVTVSS
VL: DIQMTQSPSSLSASVGDRVTITCRASQSVSSAVAWYQQKPGKAPKLLIYSASSLYSGVPSRFSGSRSGTDFTPTISSLQPEDFATYYCQQSYFSYPITFGQGTKVEIKR
Take B3: the Ki in test [2] stood at 77 nM. In test [7], this molecule displayed a koff of 0.024 s⁻¹ and a kon of 180000 M⁻¹ s⁻¹. This molecule gave an IC50 in [8] of 97 nM. This molecule also had a Kd in [4] of 130 nM.

B4: anti-MMP-12 Fab LH11 (Fab, V domains shown)
VH: EVQLVESGGGLVQPGGSLRLSCAASGFNLSYYSMHWVRQAPGKGLEWVAYIYPYYGSTYYADSVKGRFTISADTSKNTAYLQMNSLRAEDTAVYYCARFLLSIGKLFVGDGSILHVWL
VL: B3 VL with P73L, S91A, F93Y, S94G, P96L, I97F
Take B4: the Kd in test [5] was 740 nM. For the same molecule, the fold (KI compared with cdMMP-12 mutant D4) in test [9] was 83 fold. In test [6], this molecule showed a fold (KD compared with cdMMP-12 wt) of 9.9 fold. This molecule yielded a Ki in [10] of 6200 nM.

B5: anti-BACE1 Fab B1A4 (Fab, V domains shown)
VH: EVQLVESGGGLVQPGGSLRLSCAASGFNISYSSIHWVRQAPGKGLEWVAYISPSSSYTSYADSVKGRFTISADTSKNTAYLQMNSLRAEDTAVYYCARHYYVSVGSGIDYWGQGTLVTVSS
VL: DIQMTQSPSSLSASVGDRVTITCRASQSVSSAVAWYQQKPGKAPKLLIYSASSLYSGVPSRFSGSRSGTDFTPTISSLQPEDFATYYCQQASASPYALITFGQGTKVEIKR
The molecule B5 gave an IC50 in [11] of 52 nM. In addition, in [2], the Ki was 41 nM. In test [12], the dissociation rate constant (koff) came out at 0.0086 s⁻¹ and the kon came to 420000 M⁻¹ s⁻¹. Also, the Kd in test [4] came out at 21 nM.

B6: anti-MMP-12 Fab LH6 (Fab, V domains shown)
VH: EVQLVESGGGLVQPGGSLRLSCAASGFNLSYSYMHWVRQAPGKGLEWVASIYPSYGSTYYADSVKGRFTISADTSKNTAYLQMNSLRAEDTAVYYCARDLEESLPKRARTAVSKELESVPYVMDYWGQGTLVTVSS
VL: B5 VL with P73L, A91S, A93H, S94Y, P95A, Y96S, A97P, L98P
In test [5], B6 displayed a Kd of 950 nM. The molecule also displayed a fold (KI compared with cdMMP-12 mutant D4) in test [9] of 16 fold. In test [6], this molecule came in with a fold (KD compared with cdMMP-12 wt) of 2.2 fold. In addition, the Ki in test [10] worked out at 1500 nM.

B7: anti-BACE1 IgG B1A4 (antibody, V domains shown)
VH: B5 VH
VL: B5 VL
In turn, B7 came in with a Ki in [2] of 35 nM. In addition, in [13], the Kd was determined as 16 nM. The same molecule returned an IC50 in test [14] of 45 nM.

B8: anti-BACE1 Fab B2B2 (Fab, V domains shown)
VH: EVQLVESGGGLVQPGGSLRLSCAASGFNISSYYMHWVRQAPGKGLEWVASIYSSYGYTYYADSVKGRFTISADTSKNTAYLQMNSLRAEDTAVYYCARYWGYYAWFGSHPWAYGAFDYWGQGTLVTVSS
VL: DIQMTQSPSSLSASVGDRVTITCRASQSVSSAVAWYQQKPGKAPKLLIYSASSLYSGVPSRFSGSRSGTDFTLTISSLQPEDFATYYCQQYGYYLITFGQGTKVEIKR
In turn, B8 returned a Ki in test [2] of 87 nM. The molecule further had an IC50 in test [15] of 110 nM. Further, the dissociation constant (Kd) in [4] was determined as 52 nM. In [16], this molecule yielded a koff of 0.0091 s⁻¹ and a kon of 180000 M⁻¹ s⁻¹.

B9: anti-BACE1 Fab B2B3 (Fab, V domains shown)
VH: EVQLVESGGGLVQPGGSLRLSCAASGFNISYSSIHWVRQAPGKGLEWVAYISSYSSSTYYADSVKGRFTISADTSKNTAYLQMNSLRAEDTAVYYCARSASGIDYWGQGTLVTVSS
VL: B8 VL with Y91S, Y94A, L95P, I96F
Take B9: the Ki in test [2] stood at 100 nM. Besides, in test [17], the IC50 stood at 130 nM. In [18], this molecule displayed a koff of 0.0097 s⁻¹ and a kon of 93000 M⁻¹ s⁻¹. Besides, the Kd in test [4] came out at 100 nM.
